Data from patent US20120270800A1 (published 2012).
Positions of bridges follow the written chain, without caps; N, C: chain ends. Non-standard residues stand in square brackets, D forms with d. No end group written: not given here. S5 = C=CCCC[C@](C)(N)C(=O)O; βAla = NCCC(=O)O

Molecular target: mSin3
Experiment: fluorescence polarization

Kd: 12 nM
Binder: [βAla]VRRRI[S5]MLL[S5]AANYLER (staple 7-11; also: FITC-conjugated in the assay, site not given here) [SID2]
